Data from the supplement of paper PMC10567573.
± gives the standard deviation.

Experiment: protein stability index of a GFP-peptide fusion (GPS, HEK-293T) (PSI 1-6); higher = more stable
[1] = treatment: DMSO, c terminus: a fixed tail appended
[2] = treatment: MLN4924 1 uM, 8 h, c terminus: a fixed tail appended
[3] = treatment: DMSO, c terminus: native
[4] = treatment: MLN4924 1 uM, 8 h, c terminus: native
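Further: 24-mer peptide tiles fused after GFP, lentivirally expressed, FACS-sorted into six equal bins by GFP/DsRed ratio, decoded by Illumina sequencing, PSI is the read-weighted mean bin number.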

Sequence	protein stability index [1]	protein stability index [2]	protein stability index [3]	protein stability index [4]
EKSGSAEPFVLPASSVESTLPVLE [FBXO34]	5.08 ± 0.39	5.01 ± 0.34		
KGEVPKGSCEDEPMDSTMDDAVAG [ATE1]	5.48 ± 0.28	5.61 ± 0.17		
AYRTQVSSCCLHICQGIRGLWGTT [PKD2L1]	2.34 ± 0.45	2.27 ± 0.28		
GPPHARISQHGDPLLSNTFTETNN [EMID1]	4.31 ± 0.13	4.748 ± 0.028		
NLFEGMIWFIVPISCVICNDIMAY [CDS2]	3.44 ± 0.44	3.26 ± 0.74		
KPSKELKPLLGSAVLGLLLVLAAV [MYORG]	2.4 ± 0.25	2.34 ± 0.28		
NARLQAMWGQSLLPPVSTSFTTGG [TNXB]	2.51 ± 0.29	2.89 ± 0.33		
TALKKWMFLQLVPSWNGSLKQLLT [GMCL1]	2.74 ± 0.56	2.43 ± 0.43		
TRRRAVGWWKRLFTLKEEKPKMYF [ARL6IP1]	2.25 ± 0.39	2.11 ± 0.32		
PQQPVMFAQPMMRPPFGAAAVPGT [SNAP91]	3.75 ± 0.16	3.76 ± 0.3		
NDFCSFYNILKTCRGHTLERSVFS [CARM1]	2.78 ± 0.6	2.4 ± 0.3		
SPTFPALGIGMDSCVIPLRHGGLS [SEPHS2]	2.98 ± 0.15	2.98 ± 0.29		
ILTRSWEEVSTLNAQIPELKSDLE [CD207]	3.56 ± 0.28	3.78 ± 0.16		
PPLPLHPGGDQGGPPVGPLSLGLA [WAS]	4.26 ± 0.25	4.45 ± 0.15		
AEGNNQAPGEEEEEEEEATNTHPP [CHGA]	5.35 ± 0.43	5.61 ± 0.34		
GLAANGALQRLDLRNNQISHKGAE [LRRC45]	4.23 ± 0.4	4.57 ± 0.18		
RGRFGELLLLLPTLQSITWQMIEQ [HNF4A]	2.94 ± 0.28	3.33 ± 0.3		
EEEKEPLAVDSWWLDPGHTAVAQA [SERTAD1]	4.8 ± 0.27	4.88 ± 0.23		
QNQNITLDCEGTTNKMKSPETKQR [KMT2E]	5.37 ± 0.12	5.3 ± 0.12		
QMQEDNSSFSLLLDLLSELYQKQP [INTS3]	2.38 ± 0.16	2.37 ± 0.31		
DETGITVASLERFSTYTSDKDENK [ZC3H15]	5.14 ± 0.3	5.29 ± 0.087		
ASVTIQARAEQEEEFISNTLFKKI [CCDC6]	3.54 ± 0.14	3.81 ± 0.12		
LIANRSYKVSAASSFFFSGVFVGV [SLC22A15]	2.69 ± 0.8	2.49 ± 0.64		

Sequence	protein stability index [1]	protein stability index [2]	protein stability index [3]	protein stability index [4]
AEESNPPLQDFPNSISSDKEATVP [MIA2]	5.41 ± 0.1	5.36 ± 0.25		
QQHAEGSPEPGTPAAPTPESFTVH [DNAAF3]	5.17 ± 0.24	5.27 ± 0.43		
MRDQYMRAGEGFIICYSITDRRSF [RIT1]	2.37 ± 0.82	2.11 ± 0.38		
AQHKFLVAVESMEPNNIVVLLQTS [TCF25]	2.58 ± 0.54	2.35 ± 0.56		
WKKLVLVDRNTRPGPQDPEESASR [ELOA2]	4.28 ± 0.16	4.46 ± 0.11		
QKTSGQHMIQGAGSLEKALPIIQS [DLC1]	3.86 ± 0.26	4.18 ± 0.097		
AGRPSLLRHDEVRTYFHEFGHVMH [NLN]	2.48 ± 0.13	2.45 ± 0.47		
FMRTSVKISYIGLMTQSSLETHHY [TMEM106C]	3.07 ± 0.75	2.63 ± 0.38		
LLELAGEVTDTGDPIVRPLWWIAP [MYORG]	2.46 ± 0.21	2.43 ± 0.24		
TLKIRNSNFYTVAVTSLSSQIQYM [TMEM106C]	2.23 ± 0.37	2.13 ± 0.36		
APMVAGALARLGTVTVISPLELMR [SLC25A39]	2.35 ± 0.22	2.41 ± 0.32		
SCLSSQSSALSQSGGGSTSAAGIE [SPACA3]	4.78 ± 0.13	4.82 ± 0.063		
QDEVPDEVENQFILRLPLEHACTV [TAF7L]	4.395 ± 0.043	4.47 ± 0.13		
EAEEEELRAELTKVEEEIVTLRQV [TPD52L2]	4.25 ± 0.26	4.63 ± 0.51		
ILSACSPYFRAMFTGELAESRQTE [KLHL20]	2.06 ± 0.086	2.48 ± 0.33		
PQPPDAPQLVSSAREGSSEPWLPL [PLEKHN1]	4.36 ± 0.25	4.56 ± 0.1		
KHLTDTSHGVRNKCLQLLGNLGSL [INTS4]	2.45 ± 0.4	2.46 ± 0.42		
EGLGQSLGNFKDDLLNVCMRHVEK [TRIM29]	3.62 ± 0.27	3.78 ± 0.27		
VCSDKRIPGFKFDNSLINQIENLN [LOXL2]	2.56 ± 0.26	3.01 ± 0.25		
VCEEQKCEEEVFPLAMNYLDRFLS [CCND1]	3.59 ± 0.079	3.8 ± 0.18		
GRSSLTACSLPLCACLLGQKMLRH [PXN]	2.32 ± 0.28	2.19 ± 0.16		
SKGMSIFLDILRRADKNDDGKLSF [NECAB1]	2.27 ± 0.12	2.33 ± 0.17		
DENLDRMVPISKQPKEKIQAIIES [NOL4L]	4.88 ± 0.38	4.83 ± 0.21		

Sequence	protein stability index [1]	protein stability index [2]	protein stability index [3]	protein stability index [4]
AEEFEQPTLSCEKYLTYDQLRKQK [ELOA2]	4.71 ± 0.31	4.9 ± 0.11		
KKAWDDLKKYLEPRCPRMVLSLKE [FBXO3]	2.78 ± 0.26	2.86 ± 0.17		
KTEDENKQSFLDGGKGHHLPSENL [TOR1AIP2]	5.4 ± 0.21	5.27 ± 0.22		
WTQATGLGCALLAAHAVVLCALPV [SOAT2]	3.18 ± 0.35	2.97 ± 0.095		
QDQGYKTLRLRENCVLSSSPNPFP [ZNF8]	3.25 ± 0.11	3.43 ± 0.22		
MVPGTRHSAVLRDLRSGTLYSLTL [TNXB]	2.91 ± 0.58	2.03 ± 0.52		
LQREKEFKAKEAAALGSRGSCSTE [ATP6V1G1]	5.12 ± 0.14	5.1 ± 0.48		
QEKARQLLGRLKPSHTSRTLILS [MYBL2]			2.12 ± 0.29	2.32 ± 0.042
FGGMKSSGIGREGAKDSYDFFTEI [ALDH8A1]	2.22 ± 0.66	2.52 ± 0.27		
RDGYGMTPLLAASVTGHTNIVEYL [FEM1A]	2.92 ± 0.22	2.93 ± 0.24		
TERLSHQITSRVVSAATQLRHFFL [RTN2]	4.1 ± 0.17	4.08 ± 0.14		
MSVSEIFVELQGFLAAEQDIREEI [TSN]	2.39 ± 0.42	2.72 ± 0.26		
KMKFVIGNGKNLVDFTFVENVVHG [NSDHL]	2.24 ± 0.19	2.24 ± 0.47		
RSFWELIGEAAKSVKLERPVRGH [S100A14]			2.82 ± 0.81	2.65 ± 0.62
AEMPHTETVSPLPSSMDLLIQDSP [NANOGP8]	5.09 ± 0.19	5.32 ± 0.2		
LDMDDGTLSFIVDGQYMGVAFRGL [SPSB1]	2.61 ± 0.67	2.32 ± 0.31		
KMKHHLTEHMKTHTGLKPYECGVC [ZBTB22]	3.32 ± 0.28	3.5 ± 0.47		
FYMRTNPFYPEVELNFISVFWPQL [MMP1]	3.11 ± 0.38	2.89 ± 0.25		
PDPSVWSRRYTEMALPFFSLAEVR [MYORG]	2.52 ± 0.31	2.45 ± 0.13		
TSGQVVAVKKFVESEDDPVVKKIA [CDKL4]	4.66 ± 0.06	4.82 ± 0.35		
RTTRGLDPLFGMCEKFLQEVDFFQ [INTS4]	2.05 ± 0.37	2.23 ± 0.26		
EDSLAALSSVPSEAQISDPFAPEP [SNAP91]	5.33 ± 0.34	5.34 ± 0.18		
SFCELHLKPHLEGAAFRDHQLLEP [TRIM29]	2.87 ± 0.14	2.93 ± 0.087		

Sequence	protein stability index [1]	protein stability index [2]	protein stability index [3]	protein stability index [4]
RFYYSEDDHGDECSYTDLLPQDEG [KCNA4]	5.07 ± 0.19	4.88 ± 0.27		
QFSRGDFVVEYHGDLIEITDAKKR [KMT5A]	4.13 ± 0.93	4.15 ± 0.059		
RVIACQKTAHDSNVLHVARLPNRQ [WDR41]	3.52 ± 0.18	3.65 ± 0.27		
GIFLFCVCVIAIGVVQALIVGYAF [TMEM175]	2.6 ± 0.56	2.33 ± 0.56		
LRVRELQRKVDGIQKAYDELRLQS [CCDC89]	3.16 ± 0.13	3.42 ± 0.39		
LVQDLVDSLKFAVLMWLLTYVGAL [RTN1]	2.94 ± 0.2	2.85 ± 0.26		
EGLELTEQTFSPAKSLSFRKGELV [ADD1]	4 ± 0.39	4.2 ± 0.34		
PRLQQLLKTLEEGLEGLEDAPPVE [FANCE]	4.41 ± 0.16	4.34 ± 0.3		
KVIYLDDDVIVQGDIQELYDTTLA [GLT8D2]	2.65 ± 0.36	2.94 ± 0.29		
ERSSFYSCAGGRLFQQSCPTGLVF [CHIT1]	1.99 ± 0.15	2.13 ± 0.18		
VVYSCVEGKMYTARKGKGAFCNGQ [IMPA1]	2.33 ± 0.27	2.36 ± 0.13		
RHLTSRHQEAEMAQNAVRLHYGLP [CTNNB1]	3.71 ± 0.14	3.73 ± 0.25		
DQLRSGSPPKSPRTTVHDKSAHQT [DNAJC4]	5.26 ± 0.25	5.4 ± 0.14		
PPPGSLSRTQEPSLGKQKVFIIRK [SOAT2]	3.51 ± 0.17	3.73 ± 0.17		
RPEGYNLKDEEGKLKDLSTVTSLQ [PPP2R2C]	5.12 ± 0.23	5.29 ± 0.17		
YNIKLEGKVPMHKLFLEMLEAKV [ESRRG]			2.83 ± 1.5	2.43 ± 1
DKITGQSLGYGFVNYSDPNDADKA [ELAVL3]	4.81 ± 0.24	4.82 ± 0.15		
ARSAASYMLFDPKDSVMQQNLVYY [P3H4]	2.28 ± 0.48	2.08 ± 0.45		
SSGKVLPKWGWEQLEVTCTPYLKE [POMT2]	2.64 ± 0.33	2.67 ± 0.33		
AGRGGAAGTAGVGETGSGDQAGGE [MYOZ1]	5.63 ± 0.24	5.43 ± 0.32		
